Results as given in the supplement of paper PMC9732359.
± gives the uncertainty stated by the source.

Test: protein stability index of a GFP-peptide fusion (yeast GPS) (PSI 1-4); higher = more stable; sorted into four equal gates, so the index is relative within each strain
How it was run: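 For each peptide, the protein stability index sums the read frequency in every gate after multiplying it by the gate number. Read frequencies came from plasmids that were PCR-amplified from each gate and Illumina-sequenced, with reads assigned to strains by barcodes. The gates were four equal bins of GFP/Cherry fluorescence ratio applied to mid-log yeast in leucine-free medium carrying a pooled library of tiled 17-residue yeast protein peptides fused downstream of GFP on a Cherry-expressing plasmid.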

Sequence | protein stability index (doa10∆) | protein stability index (pdr5∆) | protein stability index (san1∆) | protein stability index (ubr1∆)
NKIIPNVGLCITIYDLL [RPC25] | 1.43 ± 0.082 | 1.29 ± 0.068 | 1.29 ± 0.13 | 1.5 ± 0.067
LQYLDKHIKNLEDDSLL [RPN12] | 3.44 ± 0.068 | 3.42 ± 0.081 | 3.35 ± 0.063 | 3.3 ± 0.049
ISDDDDSALRYSILGDR [POP4] | 3.12 ± 0.066 | 2.97 ± 0.093 | 2.61 ± 0.052 | 2.72 ± 0.089
QKQLPQKTRVKLLFDHD [ESC2] | 2.86 ± 0.057 | 2.93 ± 0.05 | 3.03 ± 0.039 | 3 ± 0.039
SFILSSLEDPQVRKKQI [YDL116W/NUP84] | 1.94 ± 0.11 | 2.09 ± 0.079 | 2.44 ± 0.098 | 3 ± 0.1
PAHTKYMLIEEAASSNK [ITC1] | 3.05 ± 0.12 | 2.93 ± 0.11 | 3.02 ± 0.1 | 3.01 ± 0.095
DLQYLGEFSGKNFSPTK [RRP6] | 3.46 ± 0.063 | 3.25 ± 0.083 | 3.19 ± 0.04 | 3.24 ± 0.038
RFELHGDMTNSDAQSNL [REC8] | 2.93 ± 0.27 | 3.58 ± 0.13 | 2.9 ± 0.17 | 3.22 ± 0.095
LSEAWRCWKANIPWDVP [PRP8] | 2.15 ± 0.11 | 2.16 ± 0.098 | 1.1 ± 0.15 | 3.42 ± 0.15
PNFLGNCNIKDFKPPYI [SWP82] | 2.62 ± 0.048 | 2.64 ± 0.041 | 2.61 ± 0.054 | 2.65 ± 0.031
VAARGLDIPNVSLVVNF [PRP28] | 2 ± 0.12 | 2.5 ± 0.096 | 2.04 ± 0.12 | 3.1 ± 0.15
DMAKLKKMMNTSDSEST [SWI3] | 1.81 ± 0.059 | 2.27 ± 0.05 | 1.94 ± 0.073 | 1.91 ± 0.036
EPIYGVQYKLLSISVPS [SNU114] | 2.18 ± 0.12 | 2.76 ± 0.18 | 2.02 ± 0.18 | 3.09 ± 0.11
WLETYSENRDKFLQEFI [IRR1] | 2.97 ± 0.096 | 1.93 ± 0.11 | 2.58 ± 0.096 | 1.92 ± 0.1
ELGISLEHPYGKEVEVL [SNU114] | 2.29 ± 0.082 | 2.34 ± 0.086 | 2.17 ± 0.094 | 2.14 ± 0.056
NKTNNEDLFDDYPSTSL [NUT1] | 2.22 ± 0.078 | 3.09 ± 0.054 | 2.85 ± 0.12 | 1.79 ± 0.061
GAKPEEKKDDNSSKPAF [YJL041W/NSP1] | 3.29 ± 0.12 | 3.38 ± 0.14 | 2.87 ± 0.082 | 2.86 ± 0.078
QFELLSRRWRQRKNIQS [BRR2] | 1.44 ± 0.08 | 1.92 ± 0.056 | 1.55 ± 0.088 | 1.65 ± 0.044
ADEQKRSTDVWYEASTW [ARP7] | 2.36 ± 0.06 | 2.55 ± 0.049 | 2.78 ± 0.052 | 2.73 ± 0.048
VAPVSEIVNMVPSHVPQ [SIR2] | 3.01 ± 0.09 | 2.96 ± 0.069 | 2.66 ± 0.06 | 2.87 ± 0.046
NTNELKEVSSFLMGIFN [MTR3] | 2.93 ± 0.067 | 3.06 ± 0.061 | 2.92 ± 0.061 | 3.1 ± 0.046
ETDHANTENNDPDIPMT [IRR1] | 2.74 ± 0.09 | 2.59 ± 0.066 | 2.81 ± 0.048 | 2.68 ± 0.07
TMHTKTYAAEIAHNISA [RPL32] | 2.34 ± 0.042 | 2.42 ± 0.04 | 2.21 ± 0.051 | 2.33 ± 0.036
NATLQALYRVNDLRDMI [UBP6] | 2.74 ± 0.096 | 2.95 ± 0.093 | 3.03 ± 0.062 | 3.05 ± 0.075
LVHDVVYDFYGRHVATC [YGL100W/SEH1] | 1.46 ± 0.074 | 1.69 ± 0.06 | 1.41 ± 0.12 | 1.38 ± 0.057
SNFADSADYEILYEIRA [YDL116W/NUP84] | 1.83 ± 0.081 | 1.61 ± 0.097 | 2.42 ± 0.19 | 1.71 ± 0.099
KASLLLHVLVAHKLKKS [FAS2] | 1.38 ± 0.055 | 1.27 ± 0.043 | 1.12 ± 0.088 | 1.25 ± 0.038

Sequence | protein stability index (doa10∆) | protein stability index (pdr5∆) | protein stability index (san1∆) | protein stability index (ubr1∆)
QWLNNALKRSYGIFGEG [POP8] | 2.8 ± 0.08 | 3.02 ± 0.059 | 3.08 ± 0.07 | 3.15 ± 0.071
GSFNEMKRNCGQIITLF [RMP1] | 2.74 ± 0.064 | 2.91 ± 0.06 | 2.55 ± 0.062 | 2.87 ± 0.052
GFGILEDGMIIDVNLNF [RRP40] | 3.08 ± 0.089 | 3.21 ± 0.075 | 3.19 ± 0.089 | 3.02 ± 0.076
SSWQIYSDENDPSISNN [RRP4] | 2.48 ± 0.12 | 3.16 ± 0.11 | 3.06 ± 0.072 | 3.33 ± 0.14
KALPMLEQVEFEKNTIL [MED4] | 3.02 ± 0.07 | 3.04 ± 0.083 | 2.65 ± 0.064 | 3.08 ± 0.083
TYKYFEVILVDPQHKAI [RPL15A] | 2.32 ± 0.083 | 2.09 ± 0.074 | 2.5 ± 0.15 | 2.63 ± 0.12
LVDSLATFTSIELTSYE [RPN7] | 1.57 ± 0.057 | 2.08 ± 0.061 | 1.68 ± 0.057 | 1.72 ± 0.027
KFHKREVVEAVTVVDTP [RPL3] | 1.44 ± 0.075 | 1.55 ± 0.066 | 1.63 ± 0.18 | 1.45 ± 0.069
NDQVEKDAEDETSSDGS [RPN1] | 2.63 ± 0.15 | 2.42 ± 0.096 | 2.04 ± 0.17 | 2.59 ± 0.13
GPSSVHNAKNGTLDKNS [SNF2] | 2.66 ± 0.22 | 3.03 ± 0.22 | – | 2.74 ± 0.17
EEVVSNDEGVWDLVDER [PRP8] | 3.56 ± 0.073 | 3.47 ± 0.057 | 3.42 ± 0.07 | 3.49 ± 0.058
ELAGGNASLTIEDEDEP [SMC1] | 3.03 ± 0.08 | 3.09 ± 0.14 | 3 ± 0.059 | 3.16 ± 0.074
EETDDEDKQNIEINEDN [RRI2] | 3.52 ± 0.08 | 3.25 ± 0.07 | 3.26 ± 0.045 | 3.25 ± 0.038
DWVENELEALKLEAEEI [FAS2] | 3.29 ± 0.27 | – | – | 3.49 ± 0.24
QGGVLPNIHQNLLPKKS [HTA1] | 2.67 ± 0.082 | 2.75 ± 0.074 | 2.9 ± 0.076 | 2.71 ± 0.057
LLVPASDLINKDLVKNN [FAS1] | 1.76 ± 0.086 | 2.95 ± 0.097 | 3.11 ± 0.12 | 2.83 ± 0.11
EHIIRDVHNGYILRYLH [COB] | 2.35 ± 0.23 | 1.7 ± 0.13 | 1.39 ± 0.16 | 2 ± 0.11
DVEVDDDFTNELKAELD [SEM1] | 3.25 ± 0.13 | 3.55 ± 0.11 | 3.54 ± 0.085 | 3.36 ± 0.056
WVAPQESSHEQEEFVQF [ECM29] | 3.26 ± 0.15 | 3.42 ± 0.13 | – | –
TAETGYIQRRLVKALED [RPO21] | 2.31 ± 0.073 | 2.74 ± 0.074 | 2.69 ± 0.076 | 2.74 ± 0.072
FYDIRSLLERHIPRLIP [YJL039C/NUP192] | 2.79 ± 0.049 | 2.46 ± 0.046 | 2.2 ± 0.048 | 2.77 ± 0.055
VFVDGEANWPLPVNIRR [RPO21] | 2.99 ± 0.081 | 3.06 ± 0.085 | 3.12 ± 0.13 | 3.13 ± 0.072
EFEYDDEPDEQGNPKKR [CYT1] | 3.21 ± 0.076 | 3.28 ± 0.073 | 3.04 ± 0.07 | 3.15 ± 0.07
EYVYFFNNTSVIQDEVL [RPC40] | 2.41 ± 0.15 | – | – | 2.55 ± 0.073
NFESISARSSVHESLVT [SRB8] | 2.49 ± 0.052 | 2.1 ± 0.039 | 2.17 ± 0.062 | 2.26 ± 0.027
ILSLIEEAAGTKMFEDR [SMC2] | 3.27 ± 0.11 | 3.19 ± 0.09 | 3.19 ± 0.084 | 3.24 ± 0.066
